Laboratory results published in patent US20240016931A1 (JIANGSU HENGRUI PHARMACEUTICALS, published 2024).

What follows are binders tested against T1, Fc-tagged human TSLP antigen (huTSLP-Fc) (human, biotin-labeled in the blocking assays) (assay: competition ELISA: blocks TSLP binding to TSLP receptor).
T1 construct: whole entry named; also called recombinant human TSLP-Fc

Row | Binder | IC50 [nM]
1 | hu199-04 (antibody, human IgG1, kappa, V domains shown, IgG1-YTE, kappa) VH: EVQLVQSGAEVKKPGASVKVSCKASGYTFTTYWMHWVRQAPGQGLEWMGMIDPSDSETTLIQKFKDRVTMTVDKSTSTAYMELSSLRSEDTAVYYCARTLDGYYDYWGQGTTVTVSS VL: DIQMTQSPSSLSASVGDRVTITCRASENIYSYLAWYQQKPGKAPKLLIYFAKTLAEGVPSRFSGSVSGTDFTLTISSLQPEDFATYYCQHHYGTPWTFGGGTKVEIKR | 0.424
2 | hu199-24 (antibody, human IgG1, kappa, V domains shown, IgG1-YTE, kappa) VH: EVQLVQSGAEVKKPGASVKVSCKASGYTFTTYWMHWVKQAPGQGLEWIGMIDPSDSETTLIQKFKDKATLTVDKSTSTAYMELSSLRSEDTAVYYCARTLDGYYDYWGQGTTVTVSS VL: DIQMTQSPSSLSASVGDRVTITCRASENIYSYLAWYQQKPGKSPQLLVYFAKTLAEGVPSRFSGSVSGTQFTLTISSLQPEDFATYYCQHHYGTPWTFGGGTKVEIKR | 0.496
3 | hu199-05 (antibody, human IgG1, kappa, V domains shown, IgG1-YTE, kappa) VH: EVQLVQSGAEVKKPGASVKVSCKASGYTFTTYWMHWVRQAPGQGLEWMGMIDPSDSETTLIQKFKDRVTMTVDKSTSTAYMELSSLRSEDTAVYYCARTLDGYYDYWGQGTTVTVSS VL: DIQMTQSPSSLSASVGDRVTITCRASENIYSYLAWYQQKPGKAPKLLVYFAKTLAEGVPSRFSGSVSGTDFTLTISSLQPEDFATYYCQHHYGTPWTFGGGTKVEIKR | 0.473
4 | hu199-19 (antibody, human IgG1, kappa, V domains shown, IgG1-YTE, kappa) VH: EVQLVQSGAEVKKPGASVKVSCKASGYTFTTYWMHWVKQAPGQGLEWIGMIDPSDSETTLIQKFKDKATLTVDKSTSTAYMELSSLRSEDTAVYYCARTLDGYYDYWGQGTTVTVSS VL: DIQMTQSPSSLSASVGDRVTITCRASENIYSYLAWYQQKPGKAPKLLIYFAKTLAEGVPSRFSGSGSGTDFTLTISSLQPEDFATYYCQHHYGTPWTFGGGTKVEIKR | 0.658
5 | hu199-16 (antibody, human IgG1, kappa, V domains shown, IgG1-YTE, kappa) VH: EVQLVQSGAEVKKPGASVKVSCKASGYTFTTYWMHWVRQAPGQGLEWIGMIDPSDSETTLIQKFKDRATLTVDKSTSTAYMELSSLRSEDTAVYYCARTLDGYYDYWGQGTTVTVSS VL: DIQMTQSPSSLSASVGDRVTITCRASENIYSYLAWYQQKPGKAPKLLIYFAKTLAEGVPSRFSGSVSGTDFTLTISSLQPEDFATYYCQHHYGTPWTFGGGTKVEIKR | 0.737
6 | hu199-10 (antibody, human IgG1, kappa, V domains shown, IgG1-YTE, kappa) VH: EVQLVQSGAEVKKPGASVKVSCKASGYTFTTYWMHWVRQAPGQGLEWMGMIDPSDSETTLIQKFKDRVTLTVDKSTSTAYMELSSLRSEDTAVYYCARTLDGYYDYWGQGTTVTVSS VL: DIQMTQSPSSLSASVGDRVTITCRASENIYSYLAWYQQKPGKAPKLLIYFAKTLAEGVPSRFSGSVSGTDFTLTISSLQPEDFATYYCQHHYGTPWTFGGGTKVEIKR | 0.391
7 | hu199-18 (antibody, human IgG1, kappa, V domains shown, IgG1-YTE, kappa) VH: EVQLVQSGAEVKKPGASVKVSCKASGYTFTTYWMHWVRQAPGQGLEWIGMIDPSDSETTLIQKFKDRATLTVDKSTSTAYMELSSLRSEDTAVYYCARTLDGYYDYWGQGTTVTVSS VL: DIQMTQSPSSLSASVGDRVTITCRASENIYSYLAWYQQKPGKSPQLLVYFAKTLAEGVPSRFSGSVSGTQFTLTISSLQPEDFATYYCQHHYGTPWTFGGGTKVEIKR | 0.481
8 | hu199-17 (antibody, human IgG1, kappa, V domains shown, IgG1-YTE, kappa) VH: EVQLVQSGAEVKKPGASVKVSCKASGYTFTTYWMHWVRQAPGQGLEWIGMIDPSDSETTLIQKFKDRATLTVDKSTSTAYMELSSLRSEDTAVYYCARTLDGYYDYWGQGTTVTVSS VL: DIQMTQSPSSLSASVGDRVTITCRASENIYSYLAWYQQKPGKAPKLLVYFAKTLAEGVPSRFSGSVSGTDFTLTISSLQPEDFATYYCQHHYGTPWTFGGGTKVEIKR | 0.611
9 | hu199-21 (antibody, human IgG1, kappa, V domains shown, IgG1-YTE, kappa) VH: EVQLVQSGAEVKKPGASVKVSCKASGYTFTTYWMHWVKQAPGQGLEWIGMIDPSDSETTLIQKFKDKATLTVDKSTSTAYMELSSLRSEDTAVYYCARTLDGYYDYWGQGTTVTVSS VL: DIQMTQSPSSLSASVGDRVTITCRASENIYSYLAWYQQKPGKSPQLLVYFAKTLAEGVPSRFSGSGSGTQFTLTISSLQPEDFATYYCQHHYGTPWTFGGGTKVEIKR | 0.535
10 | hu199-20 (antibody, human IgG1, kappa, V domains shown, IgG1-YTE, kappa) VH: EVQLVQSGAEVKKPGASVKVSCKASGYTFTTYWMHWVKQAPGQGLEWIGMIDPSDSETTLIQKFKDKATLTVDKSTSTAYMELSSLRSEDTAVYYCARTLDGYYDYWGQGTTVTVSS VL: DIQMTQSPSSLSASVGDRVTITCRASENIYSYLAWYQQKPGKAPKLLVYFAKTLAEGVPSRFSGSGSGTDFTLTISSLQPEDFATYYCQHHYGTPWTFGGGTKVEIKR | 0.4

Results, then the binder that gave them:

Row | IC50 [nM] | Binder
11 | 0.208 | hu199-03 (antibody, human IgG1, kappa, V domains shown, IgG1-YTE, kappa) VH: EVQLVQSGAEVKKPGASVKVSCKASGYTFTTYWMHWVRQAPGQGLEWMGMIDPSDSETTLIQKFKDRVTMTVDKSTSTAYMELSSLRSEDTAVYYCARTLDGYYDYWGQGTTVTVSS VL: DIQMTQSPSSLSASVGDRVTITCRASENIYSYLAWYQQKPGKSPQLLVYFAKTLAEGVPSRFSGSGSGTQFTLTISSLQPEDFATYYCQHHYGTPWTFGGGTKVEIKR
12 | 0.345 | hu199-22 (antibody, human IgG1, kappa, V domains shown, IgG1-YTE, kappa) VH: EVQLVQSGAEVKKPGASVKVSCKASGYTFTTYWMHWVKQAPGQGLEWIGMIDPSDSETTLIQKFKDKATLTVDKSTSTAYMELSSLRSEDTAVYYCARTLDGYYDYWGQGTTVTVSS VL: DIQMTQSPSSLSASVGDRVTITCRASENIYSYLAWYQQKPGKAPKLLIYFAKTLAEGVPSRFSGSVSGTDFTLTISSLQPEDFATYYCQHHYGTPWTFGGGTKVEIKR
13 | 0.239 | hu199-13 (antibody, human IgG1, kappa, V domains shown, IgG1-YTE, kappa) VH: EVQLVQSGAEVKKPGASVKVSCKASGYTFTTYWMHWVRQAPGQGLEWIGMIDPSDSETTLIQKFKDRATLTVDKSTSTAYMELSSLRSEDTAVYYCARTLDGYYDYWGQGTTVTVSS VL: DIQMTQSPSSLSASVGDRVTITCRASENIYSYLAWYQQKPGKAPKLLIYFAKTLAEGVPSRFSGSGSGTDFTLTISSLQPEDFATYYCQHHYGTPWTFGGGTKVEIKR
14 | 0.246 | hu199-25 (antibody, human IgG1, kappa, V domains shown, IgG1-YTE, kappa) VH: EVQLVQSGAEVKKPGASVKVSCKASGYTFTTYWMHWVKQAPGQGLEWMGMIDPSDSETTLIQKFKDKVTMTVDKSTSTAYMELSSLRSEDTAVYYCARTLDGYYDYWGQGTTVTVSS VL: DIQMTQSPSSLSASVGDRVTITCRASENIYSYLAWYQQKPGKAPKLLIYFAKTLAEGVPSRFSGSGSGTDFTLTISSLQPEDFATYYCQHHYGTPWTFGGGTKVEIKR
15 | 0.337 | hu199-23 (antibody, human IgG1, kappa, V domains shown, IgG1-YTE, kappa) VH: EVQLVQSGAEVKKPGASVKVSCKASGYTFTTYWMHWVKQAPGQGLEWIGMIDPSDSETTLIQKFKDKATLTVDKSTSTAYMELSSLRSEDTAVYYCARTLDGYYDYWGQGTTVTVSS VL: DIQMTQSPSSLSASVGDRVTITCRASENIYSYLAWYQQKPGKAPKLLVYFAKTLAEGVPSRFSGSVSGTDFTLTISSLQPEDFATYYCQHHYGTPWTFGGGTKVEIKR
16 | 0.381 | hu199-06 (antibody, human IgG1, kappa, V domains shown, IgG1-YTE, kappa) VH: EVQLVQSGAEVKKPGASVKVSCKASGYTFTTYWMHWVRQAPGQGLEWMGMIDPSDSETTLIQKFKDRVTMTVDKSTSTAYMELSSLRSEDTAVYYCARTLDGYYDYWGQGTTVTVSS VL: DIQMTQSPSSLSASVGDRVTITCRASENIYSYLAWYQQKPGKSPQLLVYFAKTLAEGVPSRFSGSVSGTQFTLTISSLQPEDFATYYCQHHYGTPWTFGGGTKVEIKR
17 | 0.37 | hu199-12 (antibody, human IgG1, kappa, V domains shown, IgG1-YTE, kappa) VH: EVQLVQSGAEVKKPGASVKVSCKASGYTFTTYWMHWVRQAPGQGLEWMGMIDPSDSETTLIQKFKDRVTLTVDKSTSTAYMELSSLRSEDTAVYYCARTLDGYYDYWGQGTTVTVSS VL: DIQMTQSPSSLSASVGDRVTITCRASENIYSYLAWYQQKPGKSPQLLVYFAKTLAEGVPSRFSGSVSGTQFTLTISSLQPEDFATYYCQHHYGTPWTFGGGTKVEIKR
18 | 0.273 | hu199-09 (antibody, human IgG1, kappa, V domains shown, IgG1-YTE, kappa) VH: EVQLVQSGAEVKKPGASVKVSCKASGYTFTTYWMHWVRQAPGQGLEWMGMIDPSDSETTLIQKFKDRVTLTVDKSTSTAYMELSSLRSEDTAVYYCARTLDGYYDYWGQGTTVTVSS VL: DIQMTQSPSSLSASVGDRVTITCRASENIYSYLAWYQQKPGKSPQLLVYFAKTLAEGVPSRFSGSGSGTQFTLTISSLQPEDFATYYCQHHYGTPWTFGGGTKVEIKR
19 | 0.311 | hu199-14 (antibody, human IgG1, kappa, V domains shown, IgG1-YTE, kappa) VH: EVQLVQSGAEVKKPGASVKVSCKASGYTFTTYWMHWVRQAPGQGLEWIGMIDPSDSETTLIQKFKDRATLTVDKSTSTAYMELSSLRSEDTAVYYCARTLDGYYDYWGQGTTVTVSS VL: DIQMTQSPSSLSASVGDRVTITCRASENIYSYLAWYQQKPGKAPKLLVYFAKTLAEGVPSRFSGSGSGTDFTLTISSLQPEDFATYYCQHHYGTPWTFGGGTKVEIKR
20 | 0.287 | hu199-15 (antibody, human IgG1, kappa, V domains shown, IgG1-YTE, kappa) VH: EVQLVQSGAEVKKPGASVKVSCKASGYTFTTYWMHWVRQAPGQGLEWIGMIDPSDSETTLIQKFKDRATLTVDKSTSTAYMELSSLRSEDTAVYYCARTLDGYYDYWGQGTTVTVSS VL: DIQMTQSPSSLSASVGDRVTITCRASENIYSYLAWYQQKPGKSPQLLVYFAKTLAEGVPSRFSGSGSGTQFTLTISSLQPEDFATYYCQHHYGTPWTFGGGTKVEIKR
21 | 0.283 | hu199-07 (antibody, human IgG1, kappa, V domains shown, IgG1-YTE, kappa) VH: EVQLVQSGAEVKKPGASVKVSCKASGYTFTTYWMHWVRQAPGQGLEWMGMIDPSDSETTLIQKFKDRVTLTVDKSTSTAYMELSSLRSEDTAVYYCARTLDGYYDYWGQGTTVTVSS VL: DIQMTQSPSSLSASVGDRVTITCRASENIYSYLAWYQQKPGKAPKLLIYFAKTLAEGVPSRFSGSGSGTDFTLTISSLQPEDFATYYCQHHYGTPWTFGGGTKVEIKR
22 | 0.365 | hu199-11 (antibody, human IgG1, kappa, V domains shown, IgG1-YTE, kappa) VH: EVQLVQSGAEVKKPGASVKVSCKASGYTFTTYWMHWVRQAPGQGLEWMGMIDPSDSETTLIQKFKDRVTLTVDKSTSTAYMELSSLRSEDTAVYYCARTLDGYYDYWGQGTTVTVSS VL: DIQMTQSPSSLSASVGDRVTITCRASENIYSYLAWYQQKPGKAPKLLVYFAKTLAEGVPSRFSGSVSGTDFTLTISSLQPEDFATYYCQHHYGTPWTFGGGTKVEIKR
